Measured values: article PMC4552281

Target: FcBP-encapsulin (Fc-binding peptide inserted encapsulin protein cage nanoparticle) (Thermotoga maritima) (UniProt Q9WZP2)
Assay: SEC; elution of purified FcBP-encapsulin compared with encapsulin

stoichiometry N: 60
Substance: FcBP-encapsulin (Fc-binding peptide inserted encapsulin protein cage nanoparticle) (from UniProt Q9WZP2 1-138; Q9WZP2 139-265) (designed binder)
